Experimental data: article PMC9784262

Experiments:
[1] = test system: Nterm (position 1, -----FR----); assay: potentiometry; details: 25 °C; not stated (no added salt mentioned); none stated (unbuffered aqueous surfactant solution, N2 atmosphere, magnetic stirring); aggregated (micellar): post-micellar surfactant concentration, exact concentration not stated
[2] = test system: Nterm (position 1, -----WR----); assay: potentiometry; details: 25 °C; not stated (no added salt mentioned); none stated (unbuffered aqueous surfactant solution, N2 atmosphere, magnetic stirring); aggregated (micellar): post-micellar surfactant concentration, exact concentration not stated

Substance	pKa [1]	pKa [2]
PANHC8 (phenylalanine-arginine octyl amide dihydrochloride) (synthetic)	6.9	–
PANHC10 (phenylalanine-arginine decyl amide dihydrochloride) (synthetic)	6.9	–
PANHC12 (phenylalanine-arginine dodecyl amide dihydrochloride) (synthetic)	6.1	–
PANHC14 (phenylalanine-arginine tetradecylamide dihydrochloride) (synthetic)	5.9	–
TANHC10 (tryptophan-arginine decyl amide dihydrochloride) (synthetic)	–	7.2
TANHC12 (tryptophan-arginine dodecyl amide dihydrochloride) (synthetic)	–	7.8
TANHC14 (tryptophan-arginine tetradecylamide dihydrochloride) (synthetic)	–	7.0
